Measurements taken from US20220193196A1, “Methods for Modulating T Cell Activation” (THE WALTER AND ELIZA HALL INSTITUTE OF MEDICAL RESEARCH, priority 2019, published 2022).
Entries after “also recorded” stand apart in the source; their conditions may differ.

What was measured:
tnfr2−/− CD4 T cells = assay: Expansion of anti-CD3 activated CD4 T cells deficient for TNFR2; assay type: cell-based, mouse; details: anti-CD3 10 μg/ml, TNF 5 ng/ml
Experimental: (§1) All experiments were performed using C57BL/6 mice bred and maintained under specific pathogen-free conditions in the WEHI animal facilities (Parkville, Victoria, Australia) and used between 8-20 weeks of age. All experiments were performed under the approval of the WEHI Animal Ethics Committee. Tnfr1−/− and Tnfr2−/− mice were maintained at the WEHI.
(§2) T cells were isolated from pooled mouse lymph nodes (inguinal, axillary, brachial, superficial cervical and lumbar) and isolated using MACS negative selection kits for CD4+ or CD8+ T cells (Miltenyi Biotec, Auburn, Calif., USA). T cell purity was confirmed by flow cytometry following isolation. For all experiments, T cell purity was between 82.9-98.2%. […]
(§3) The following T cell stimulations were used: TCR was stimulated using 10 μg/ml plate bound anti-CD3 (clone 145-2c11, WEHI antibody facility, Australia) unless a different concentration was specified. […] The TNFR2 agonist mSTAR was prepared according from HEK293 cells were transiently transfected and cells cultured for 5-7 days, supernatants were purified using anti-Flag affinity chromatography, and the concentrations of the recombinant proteins were determined compared to standard proteins. […]
(§4) To determine the role of TNF receptors 1 (TNFR1) and 2 (TNFR2) as regulators of TNFα driven T cell co-stimulation, the response of T cells deficient for either TNFR1 or TNFR2 was measured. […]

naïve mouse CD4 T cells = assay: Expansion of anti-CD3 activated naïve CD4 T cells (total cell numbers, CTV dilution by flow cytometry); assay type: cell-based; details: for CD4 T cell expansion (total live cell number, dilution of cell division dyes): plate bound anti-CD3 10 μg/ml, titrated doses of soluble recombinant TNF, over 4 days
Experimental: (§5) T cells were isolated from pooled mouse lymph nodes (inguinal, axillary, brachial, superficial cervical and lumbar) and isolated using MACS negative selection kits for CD4+ or CD8+ T cells (Miltenyi Biotec, Auburn, Calif., USA). T cell purity was confirmed by flow cytometry following isolation. For all experiments, T cell purity was between 82.9-98.2%.
(§6) T cells were cultured in RPMI 1640 medium (Invitrogen) supplemented with non-essential amino acids, 1 mM Sodium-pyruvate, 10 mM HEPES, 100 U/ml Penicillin, 100 μg/ml Streptomycin (Invitrogen), 50 μM 2β-mercaptoethanol, 2 mM L-glutamine (Sigma) and 10% FCS (Sigma). Cells were incubated in a humidified environment at 37° C. in 5% CO2. For division tracking experiments, T cells were labelled with Cell Trace Violet (Invitrogen) according to the manufacturer's instructions. T cells were cultured in flat bottom tissue culture plates.
(§7) The following T cell stimulations were used: TCR was stimulated using 10 μg/ml plate bound anti-CD3 (clone 145-2c11, WEHI antibody facility, Australia) unless a different concentration was specified. Recombinant murine TNF was purchased from R&D Systems (Minneapolis, Minn., USA). Recombinant mIL-2 was purchased from Peprotech. Smac-mimetics were purchased from Sellekchem, MA. The TNFR2 agonist mSTAR was prepared according from HEK293 cells were transiently transfected and cells cultured for 5-7 days, supernatants were purified using anti-Flag affinity chromatography, and the concentrations of the recombinant proteins were determined compared to standard proteins.
Triplicate wells were harvested at each time point. To determine absolute cell numbers, the number of live cells per culture was estimated by reference to a known number of Calibrite beads (Becton Dickinson, San Jose, Calif.), added directly to cell culture before collecting. […]
To examine the role of TNFα in T cell co-stimulation, naïve CD4 T cells were isolated from C57Bl/6 mice and stimulated with a range of recombinant mouse TNF concentrations in the presence of T cell receptor (TCR) crosslinking via plate bound anti-CD3 stimulation. CD4 T cells were labelled with the cell division tracking dye cell trace violet (CTV) and the response measured daily over 96 hours by quantifying T cell expansion using flow cytometry.
To determine if the co-stimulation effect of TNF on T cells could be mimicked using an agonist specific for TNFR2, the response of naïve mouse CD4 T cells activated via TCR in the presence of recombinant mouse TNF, or a TNFR2-specific agonist called mSTAR (Rauert et al., 2010; Chopra et al., 2016) was measured. Naïve CD4 T cells were CTV labelled and the response measured by flow cytometry after stimulation with anti-CD3 in the presence of TNF or mSTAR (FIGS. 16 to 19).

mouse CD8 T cells = assay: Cytokine bead array: IFNγ production by TCR activated CD8 T cells; assay type: cell-based; details: anti-CD3 10 μg/ml
Experimental: Supernatant was removed from T cell cultures at 48 hours and CBAs performed to measure IFNγ production. Data represent mean for duplicate samples. ND=none detected.
as §7
Supernatant from T cell cultures 48 hours after activation as described above were used to measure cytokine production (IL-2, IL-4, IL-6, IFN-γ, TNF, IL-17A and IL-10) using the Th1/Th2/Th17 BD Cytometric Bead Array (CBA) Kit (BD Bioscience). The CBA assay was performed according to manufacturer's instructions.
The effect of TNFR2 co-stimulation with TNF on the differentiation of TCR activated CD8 T cells was determined. […] This effect was synergised by the addition of smac-mimetics or IL-2 (FIG. 23).

naïve mouse CD8 T cells = assay: Expansion of anti-CD3 activated naïve CD8 T cells (total cell numbers, CTV dilution by flow cytometry); assay type: cell-based; details: for receptor through which TNF co-stimulates CD8 T cells: CD8 T cells from WT, tnfr1−/− or tnfr2−/− mice, anti-CD3, TNF 5 ng/ml, 4 days
Experimental: as §5, §6, §7
Triplicate wells were harvested at each time point. To determine absolute cell numbers, the number of live cells per culture was estimated by reference to a known number of Calibrite beads (Becton Dickinson, San Jose, Calif.), added directly to cell culture before collecting. Dead cells were identified via uptake of propidium iodide (SigmaAldrich) added to culture before flow cytometry. Flow cytometry was performed on a BD FACS Canto II or Fortessa.
To determine if TNF co-stimulation was restricted to CD4 T cells, or could act on all effector cells from the T cell lineage, co-stimulation of naïve CD8 T cells by TNFα was measured. Naïve CTV labelled CD8 T cells were cultured in the presence of plate bound anti-CD3 with various concentrations of recombinant mouse TNFα and the response measured by flow cytometry.
Naïve CD8 T cells were isolated from WT mice and stimulated with combinations of anti-CD3, TNF and SMAC mimetics. The expansion of CD8 T cells was determined by measuring T cell numbers quantified relative to a known number of quantification beads via flow cytometry.

tnfr1−/− CD4 T cells = assay: Expansion of anti-CD3 activated CD4 T cells deficient for TNFR1; assay type: cell-based, mouse; details: anti-CD3 10 μg/ml, TNF 5 ng/ml, compared with WT CD4 T cells
Experimental: as §1, §2, §3, §4

[1] = tested on: CD8 T cells deficient for TNFR2; assay: Co-stimulation of anti-CD3 activated CD8 T cells deficient for TNFR2 (dilution of cell tracking dyes); assay type: cell-based, mouse; details: anti-CD3 10 μg/ml, mSTAR 5 ng/ml, 72 hours
Experimental: Data are representative examples of triplicate cultures.
as §1, §2
The following T cell stimulations were used: TCR was stimulated using 10 μg/ml plate bound anti-CD3 (clone 145-2c11, WEHI antibody facility, Australia) unless a different concentration was specified. […] The TNFR2 agonist mSTAR was prepared according from HEK293 cells were transiently transfected and cells cultured for 5-7 days, supernatants were purified using anti-Flag affinity chromatography, and the concentrations of the recombinant proteins were determined compared to standard proteins.

[2] = anti-CD3 10 μg/ml, TNF 5 ng/ml or mSTAR 5 ng/ml, 72 hours

B1: TNF: Recombinant murine TNF purchased from R&D Systems; wild type, not TNFR2-specific (protein)
chain: LRSSSQNSSDKPVAHVVANHQVEEQLEWLSQRANALLANGMDLKDNQLVVPADGLYLVYSQVLFKGQGCPDYVLLTHTVSRFAISYQEKVNLLSAVKSPCPKDTPEGAELKPWYEPIYLGGVFQLEKGDQLSAEVNLPKYLDFAESGQVYFGVIAL
For B1, the “co-stimulation of CD4 T cells in the absence of TNFR2” value (tnfr2−/− CD4 T cells) was “no co-stimulation”, the “receptor through which TNF co-stimulates CD4 T cells” value (naïve mouse CD4 T cells; CD4 T cells from WT, tnfr1−/− or tnfr2−/− mice, anti-CD3, TNF 5 ng/ml, 4 days) was “act exclusively through TNFR2; also recorded: co-stimulates CD4 T cells through TNFR2” and the “CD4 T cell expansion (total live cell number, dilution of cell division dyes)” value (naïve mouse CD4 T cells) was “promotes CD4 T cell division and expansion”. For the same molecule, the “CD4 T cell expansion (total live cell number, dilution of cell division dyes)” value (naïve mouse CD4 T cells; listed as TNFα) was “significantly enhanced CD4 T cell expansion in a dose dependent manner”, the IFNγ production (mouse CD8 T cells; TNF 5 ng/ml, supernatant at 48 hours) was “significantly increased; also recorded: increases IFNγ production” and the “receptor through which TNF co-stimulates CD8 T cells” value (naïve mouse CD8 T cells) was “co-stimulates CD8 T cells through TNFR2”. The “receptor through which TNF co-stimulates CD8 T cells” value (naïve mouse CD8 T cells; listed as TNFα) was “mediated exclusively by TNFR2”, the “CD8 T cell expansion (total CD8 T cell numbers, dilution of division tracking dyes)” value (naïve mouse CD8 T cells; plate bound anti-CD3 10 μg/ml, titrated doses of soluble recombinant TNF, over 4 days) was “potent co-stimulator of CD8 T cells; also recorded: potent co-stimulation factor to promote CD8 T cell division and expansion” and the “response of tnfr1−/− CD4 T cells to TNF co-stimulation” value (tnfr1−/− CD4 T cells) was “indistinguishable from WT CD4 T cells”.

B2: mSTAR: TNFR2-specific agonist TNF mutein (Rauert et al., 2010; Chopra et al., 2016), SEQ ID NO:3, produced in HEK293 cells (protein)
chain: ACGCAAAPDIKDLLSRLEELEGLVSSLREQGGGGSLRSSSQNSSDKPVAHVVANHQVEEQLEWLSQRANALLANGMDLKDNQLVVPADGLYLVYSQVLFKGQGCPDYVLLTHTVSRFAISYQEKVNLLSAVKSPCPKDTPEGAELKPWYEPIYLGGVFQLEKGDQLSAEVNLPKYLNFRESGQVYFGVIALGGGGSLRSSSQNSSDKPVAHVVANHQVEEQLEWLSQRANALLANGMDLKDNQLVVPADGLYLVYSQVLFKGQGCPDYVLLTHTVSRFAISYQEKVNLLSAVKSPCPKDTPEGAELKPWYEPIYLGGVFQLEKGDQLSAEVNLPKYLNFRESGQVYFGVIALGGGGSLRSSSQNSSDKPVAHVVANHQVEEQLEWLSQRANALLANGMDLKDNQLVVPADGLYLVYSQVLFKGQGCPDYVLLTHTVSRFAISYQEKVNLLSAVKSPCPKDTPEGAELKPWYEPIYLGGVFQLEKGDQLSAEVNLPKYLNFRESGQVYFGVIAL
B2 was tested, and the “CD4 T cell response (dilution of cell tracking dyes, total cell numbers), TNF compared with mSTAR” value (naïve mouse CD4 T cells; [2]) was “can mimic TNF mediated CD4 T cell activation”, the “CD8 T cell response (dilution of cell division dyes, total cell numbers), mSTAR compared with TNF” value (naïve mouse CD8 T cells; [2]) was “can mimic TNF CD8 T cell activation” and the “T cell co-stimulation in CD8 T cells deficient for TNFR2” value [1] was “did not induce any T cell co-stimulation; also recorded: does not activate CD8 T cells in the absence of TNFR2”.

B3: IL-2: Recombinant mIL-2 purchased from Peprotech (protein, UniProt P04351 21-169, looked up)
Interleukin-2: APTSSSTSSSTAEAQQQQQQQQQQQQHLEQLLMDLQELLSRMENYRNLKLPRMLTFKFYLPKQATELKDLQCLEDELGPLRHVLDLTQSKSFQLEDAENFISNIRVTVVKLKGSDNTFECQFDDESATVVDFLRRWIAFCQSIISTSPQ
B3 was tested, and the “IFNγ production, effect of addition to TNF co-stimulation” value (mouse CD8 T cells; TNF 5 ng/ml with Smac-mimetic or IL-2, supernatant at 48 hours) was “synergised”.
